Source: the supplement of paper PMC12783771
± gives the standard deviation of the averaged measurements.

Legend:
[1] = sfGFP reporter fluorescence (15 h) (µM FITC); higher = higher leak; details: library round: Round 0; ligand: none
Description: (§1)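 Cell-free (BL21 Star DE3 extract, PANOx-SP) biosensing: 1 µL Echo-assembled reactions with linear PbrR variant templates (5 nM) and pPbrR-sfGFP reporter, with 1 µM Pb (lead chloride), 30 µM Zn (zinc acetate) or no ligand; endpoint sfGFP fluorescence after 15 h at 30 °C, calibrated as µM FITC. Round 0 library (alanine scan, site saturation, combinatorial) of PbrR from Cupriavidus metallidurans; 2 biological replicates.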

[2] = sfGFP reporter fluorescence (15 h) (µM FITC); higher = stronger transcriptional activation; details: library round: Round 0
Description: as §1

Sequence: MNIQIGELAKRTACPVVTIRFYEQEGLLPPPGRSRGNFRLYGEEHVERLQFIRHCRSLDMPLSDVRTLLSYRKRPDQDCGEVNMLLDEHIRQVESRIGALLELKHHLVELREACSGARPAQSCGILQGLSDCVCDTRGTTAHPSDA [*146A]
- sfGFP reporter fluorescence [1]: 0.06121 ± 0.00052
- sfGFP reporter fluorescence ([2]; ligand: 1 µM Pb): 0.0918 ± 0.006
- sfGFP reporter fluorescence ([2]; ligand: 30 µM Zn): 0.671 ± 0.0096
